Data taken from PMC3308894.
Where “and” joins values, the source holds several entries; their conditions need not be identical. Equal entries are not always repeated.

How the values were obtained:
Assay in all cases: other fluorescence titration
[1] = target: tail-less histone H2A-H2B complex, fluorescently labeled (Xenopus laevis) (UniProt P06897)
[2] = target: tri-nucleosome array NLE (nonlinker-ended), 561-bp DNA (Xenopus laevis)
[3] = target: 147-bp nucleosome, which contains no linker DNA (Nuc147) (Xenopus laevis)
[4] = target: 207-bp linker DNA-containing nucleosome (Nuc207) (Xenopus laevis)
[5] = target: an individual nucleosome, whether mono or as part of an array
[6] = target: tri-nucleosome array LE (linker-ended), 621-bp DNA (Xenopus laevis)
[7] = target: histone H2A-H2B complex, fluorescently labeled (Xenopus laevis) (UniProt P06897)
[8] = target: histone H3-H4 complex, fluorescently labeled (Xenopus laevis) (UniProt P84233)

FACT (facilitates chromatin transcription) complex, full-length, de-phosphorylated (from UniProt Q9Y5B9;Q08945)
fold lower affinity than for tail-containing H2A-H2B [1]: 7 fold | Kd [2]: 36 nM | stoichiometry N (FACT:tri-nucleosome) [2]: 2.4 | Kd [3]: 64 nM | Kd [4]: 22 nM | stoichiometry N (FACT molecules per nucleosome) [5]: 1 and 2 | Kd [6]: 26 nM | stoichiometry N (FACT:tri-nucleosome) [6]: 3.3 | Kd [7]: 31 nM

FACTΔCTD (Spt16 acidic C-terminal domain truncation + SSRP1) (from UniProt Q9Y5B9;Q08945) (complex)
fold less affinity than FACT [4]: 20 fold | fold less affinity than SSRP1 alone [4]: 7 fold | Kd [8]: > 1000 nM | fold increase of Kd(app) against full-length FACT [7]: 6 fold

SSRP1 (structure-specific recognition protein 1) subunit of FACT (from UniProt Q08945 1-709) (natural protein)
Kd [3]: > 1000 nM | Kd [4]: 67 nM

Spt16 (Suppressor of ty 16) subunit of FACT (from UniProt Q9Y5B9 1-1047) (natural protein)
Kd [7]: 85 nM
